Stoichiometry N data for one substance are collected here from publication PMC5945002.

The assay addresses BrvH, flavin-dependent halogenase (predicted gene 12 of the Botany Bay metagenome) (Brevundimonas BAL3 (most likely; gene found in the Botany Bay metagenome)). Put plainly: SEC; 16/60 Superdex 200, 10 mM Tris 20 mM NaCl pH 8, 4 °C, flow rate 1 mL/min; last step of the purification for crystallisation. On the technique in general: Size exclusion chromatography separates by hydrodynamic size, large species first.

Usually stoichiometry N stands for the number of molecules, sites or subunits per partner or assembly. “BrvH, flavin-dependent halogenase (predicted gene 12 of the Botany Bay metagenome) (enzyme)”: the stoichiometry N is 2.
